The series in a line: yeast display, Sf9 membrane polyspecificity reagent, FACS + sequencing; frameworks hold sequencing errors. The method, boiled down: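 Nanobodies came from a synthetic yeast display library in Saccharomyces cerevisiae BJ5465, induced with galactose for 36–48 hours and stained for 1 hour at 4 °C with 10% biotinylated, detergent-solubilized Sf9 membrane reagent. Cells were enriched on streptavidin microbeads and then FACS-sorted, with low and high (top ~1%) gates set on anti-HA fluorescence for expression and streptavidin fluorescence for reagent binding. Each polyreactivity label reflects the gate a clone came from. Genes were amplified by colony PCR, sequenced by MiSeq 2 × 250 and filtered by CDR length.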
With “QVQLVESGGCLVQAGGTLRLSCAASGFIFYHNAMGWYRQAPGKERELVAAISGSGGSTHYADSVKGRFTISRDNAKNSVYLQMNSLKPEDTAVYYCARRFWFHYYGYDYWGQGSQVTVSS”, the “polyreactivity (PSR sort gate)” value is reported as “high polyreactivity”.
Take “QVQLVESGGGLVQAGGSLRLSWAASGSIFKYYAMGWYRQAPGKDRELVADISRSGGRTYYADSVKGRFTISRDNAKNTVFLQMNSLKPEDTAVYYCAKRYSRGSQDDYWGQGTQVTVSS”: the “polyreactivity (PSR sort gate)” value is on record as “high polyreactivity”.
With “QVQLVESGGGLVQAGGSLRLSCAASGRNFDYYTMGWYRQAPGKERELVARIRRSAGTTYYADSVKGRFTISRDNAKNPVYCQMNSLIPEDTAVYYCNVVPYFKYGYWGQGTQVTGSS”, the “polyreactivity (PSR sort gate)” value is listed as “low polyreactivity”.
The entry for “QVQLVDSGGGLVQAGGILRLSCAASGSTFRYYAMGWYRQAPGKERELVAAITKNGGSTYYADSVKGRFTISRDNAKNTVYLQMNSLKPEDTAVYYCAVQFSYSGWYYVSYYYWGQGTQVTVSS” is “high polyreactivity”; for “QVQLVESGGGLVQAGGSLRLSCAASGSTFYTYAMGWYRQAPGKERELVAAISNRGGSTRYADSVKGRFTISRDNAKNTVYLQMNSLKPEDTAVYYCAARVTQTGYYWGQGTQVTVSS” it is “high polyreactivity”; for “QVQLVESGGGLVQAGGSLRLSCAASGSTFGYYTMGWYRQAPGKERELVASISWSGASTHYADSVKGRFTISRDNAKNTVYLPMNRLKPEDTAVYYCAADSYPAYLGFVGFDYWGQGTQVTVSS” it is “low polyreactivity”.
As for “QVQLVESGGGLVQAGGSLRLSCAASGSTFDVYDMGWYRQAPGKERELVASISWDGDRTYYADSVKGRFTISRDNAKNTVYLQMNSLKPEDTAVYYCAVDSASDTIYDYWGQGTQVTVSS”, the “polyreactivity (PSR sort gate)” value is given as “low polyreactivity”.
As to “QVHLVESGGGLVQAGGSLRLSCAASGLIFGRNAMGWYRQAPGKERELVAAISTRGGSTYYADSVKGRFTISRDNAKNTVYLQMNSLKPEDTAVYYCAARGSYGYDYWGQGPQVTVSS”, the “polyreactivity (PSR sort gate)” value is recorded as “high polyreactivity”.
Next, “QVQLVESGGGLVQAGGSLRLSCAASGRIFYYYAMGWYRQAPGKERELVAASSTYYADSVKGRFTISRDNAKNTVYLQMNSQKPEDTAVYYCAAVTFSYDGYDYWGPGTQVTVSS”: “low polyreactivity”.
For the sequence “QVQLVESGGGLVQAGGSLRLSCGASGSSFADNAMGRYRPATGTERELVDTNTGSGGSTYYADSVKGRFTISRDNAKNTVYLLMNSLKPEDTAVYYCAAEVVAWSLYEDFKTYDYWGQGTQVTVSS”, the “polyreactivity (PSR sort gate)” value is recorded as “low polyreactivity”.
The entry for “QVQLVESGGGLVQAGGSLRLSCAASGSIFEGYVMGCDIQAPGKERELVATISFSGGSTYYADSVKGRFTISRDNAKNTVYLQMNSLKPEDTAVYYCNALVYHTKGDYGYWGQGTQVTVSS” is “low polyreactivity”.
With “QVQLVESGGGLDQAGGSLRLSCAASGLIFYTYAMGWYRQAPGKERELVADINRSDGSTYYADSVKGRFTISRDNAKNTVYLQMNSLKPEDTAVYYCAVVGTYYSRFGGRYYYWGQGTQVTVSS”, the “polyreactivity (PSR sort gate)” value is reported as “low polyreactivity”.
Consider “QVQLVESGGGLVQAGGSLRLSCAASGRIFYSYAMGWYRQAPGKERELVATISSGGSTNYADSVKGRFTISRDNAKNTVYLQMNSLKPEDTAVYYCARDSTYSSYTSNDYWGQGTQVTVSS”, for which the “polyreactivity (PSR sort gate)” value is recorded as “high polyreactivity”.
The entry for “QVQLVESGGGLVQAGGSLRLSCAASGSTFRIYAMGWYRQAPGKERELVAAISRSGGSTYYADSVKGRFTISRDNAKNTVYLQMNSLKPEDTAVYYCAAQPSYRYYKSYDYWGQGTQVTVSS” is “high polyreactivity”.
With “QVQLVESGGGLVQAGGSLLLSCAASGRTFNYIAMGWYRQAPGKERELVAAISQGGGSTYYADSVKGRFTISRDNAKNTVYLQMNSLKPEVTAVSYFAADTWWYGKYDYWGQGTQVTVSS”, the “polyreactivity (PSR sort gate)” value is “low polyreactivity”.
Turning to “QVQLVESGGGLVQAGGSLRLSCAASGFTFQYYAKGWYRQAPGKERELVAAISSSGGSTFYADSVKGRFTSSRDNAKNTVYLQMNSLKPEDTAVYYCATYTSPGYYYWGQGTQVTVSS”, the “polyreactivity (PSR sort gate)” value was “high polyreactivity”.
With “QVQLVESGGGLVQAGGSLRLSCAASGGIFAPNAMGWYRQAPGKERELVAAISTGGGSTRYADSVKGRFTISRDNAKNTVYLQMNSLKPEDTAVYYCAATRVGVRRMDYWGQGTQVTVSS”, the “polyreactivity (PSR sort gate)” value is recorded as “low polyreactivity”.
The entry for “QVQLVESGGGLVQAGGSLRFSCAASGSIFSLNTMGWYRQAHGKERELVAAITRGGSTYYADSVKGRFTISRDNAKNTVYLQMNSLKPEDTAVYYCAAVPGGNISAPYDYWGQGTQVTVSS” is “high polyreactivity”; for “QVQLVESGGGLVQAGGSLRLSCAASGTTFILNAMGWYRQAPGKDRELVATISSSDTSTYYADSVKGRFTISRDNAKNTVYLQMNSLKPEDTAVYYCNADYYTTSYLQRVFHYGVEYDYWGQGTQVTVSS” it is “low polyreactivity”; for “QVQLVESGGGLVQAGGSLRLSCAASGRTFRRNAMGWYRQAPGKERELVASINRGGGTNYADSVKGRFTISRDNAKNTVYLQMNSLKPEDTAVYYCAAGPGTYWGYDYWGQGTQVTVSS” it is “low polyreactivity”.
The entry for “QVQLVESGGGLVQAGGSLRLSCAASGRTFFHYAMGGSRQAPGKERELVAAMTSRGDSTYYADSVKGRFTISRDNAKNTVYLQMNSLKPAETAVYYCAVYSHRRNMNYWGQGTQVTVSS” is “high polyreactivity”; for “QVQLVESGGGLVQAGGSIRLSCAASGSIFSWYAMGWYSQAPGKERELVAAITSDGGTNYADSVKGRFTISRDNAMNTVYLQMNTLKPEDTAVYYCAADYWYSWRRSHYAHRYGYWGQGTQVTVSS” it is “low polyreactivity”; for “QVQLVESGGGLVQAGGSLRLSCAAYGSIFRVYAMGWYRQAPGKEREFVAAITRRGTRTYYADSVKGRFTISRDNAKNTVYLQMNSLKPEDTAVYYCAAYFTDGLFEYWGQGTQVTVSS” it is “low polyreactivity”.
Consider “QVQLVESGGGLVQAGGSLRLSCAASGGIFFRNDMGWYRQAPGKERELVAAISSNGGSTYYADSVKGRFTISRDNAKNTVYLQMNSLKPEDTAVYYCNTGVYSSGGPLDYWGQGTQVTVSS”, for which the “polyreactivity (PSR sort gate)” value is reported as “low polyreactivity”.
Next, “QVQLVESGGGLVQAGGSLRLSCAASGSIYDIYAMGWYGQAPGKERELVAAIRSGDRTHYADSVKGRFTISRDNAKNTVYLQMNSLKPEDTAVYYCAADRYIYLNREHDYWGQGTQVTVSS”: “low polyreactivity”; “QVQLVESGGGLVQAGGSLRLSCAACGRILWTYAMGLYRQAPGKERELVADISRTGSTNYADSVKGRFTISRDNAKNTVYLQMNSLKPEDTAVYYCAADRWAHTHRLGYWGQGTQVTVSS”: “low polyreactivity”.
Take “QVQLVESGGGLVQAGGSLRLSCAASGSIFDNYAMGWYRPAPGKERELVAVISSGGVSTSYADSVKGRFTISRDNAKNTVYLQMNSLKTEDTAVYYCAADGYYIGPYDYWGQGTQVNVSS”: the “polyreactivity (PSR sort gate)” value is listed as “low polyreactivity”.
Consider “QVQLVESGGGLVQAGGSLRLSCAASGSTFYPYAMGWYRQAPGKERELVAAISYSGGSTYYADSVKGRFTISRDNAKNTVYLQMNSLKPEDSAVYYCAAYYRRQFTSYGNYYYWGQGTQVTLSS”, for which the “polyreactivity (PSR sort gate)” value was “high polyreactivity”.
In the case of “QVQLVESGGGLVQAGGSLRLSCAASGFTFNRYDMGWYRQAPGKERELVAAITGGSGSTYYADSVKGRFTISRDNAKNTVYLQMHSLKPEDTAVYDCAARRYRLSTPEFNYWGQGTQVTVSS”, the “polyreactivity (PSR sort gate)” value is “high polyreactivity”.
On to “QVQLVESGGGLVQAGGSLRLSCASSGYIFAGNAMGWYRQAPGKERELVAVITRGGRTYYADSVKGRFTISRDNAKNTVYLQMNSLKPEDTAVYYCAARYPYRGWGQGTQVTVSS”, for which the “polyreactivity (PSR sort gate)” value is listed as “high polyreactivity”.
Next, “QVQLVESGGGLVQAGGSLRLSSAASGITFITYAMVWYRQAPGKERELVAAISSSGGSTYYADSVKGRFTFSRDNAKNTVYLKMNSLKPEDTAVYYCAAEYVWYFGWKYGYWGQGTQVTVSS”: “high polyreactivity”; “QVQLVESGGGLVQAGGSLRLSCAASGRIFVIYAMGWYRQAPGKERELVAVINDDGSTNYADSVKGRFTISRDNAKNTVYLQMNSLKPEDSAVYYCNAVYYSYRYGHDYWGQGTQVTVSS”: “low polyreactivity”; “QVQLVESGGGLVQAGGSLRLSCAASGRIFRRYAMGWYRQAPGKERELVAAISSGGSTYYADSVKGRFTISRDNEKNTVYLQLNSLKPEDSAVYYCNAKVGAYLNYGYWGQGTQVTVSS”: “low polyreactivity”.
Next, “QVQLVESGGGLVQAGGSLRLSCAASGSTFKYYVMGWYRQAPGKEREFVAAITLRGGRTYYADSVKGRFTISRDNAKNTVYLQMNSLKPEDTAVYYCNAAYYLGWAHGTGRVEYDYWGQGTQVTVSS”: “high polyreactivity”.
The entry for “QVQLVESGGGLVQAGGSLRLSCAASGFIFGYNAMGWYRQAPGKERELVAALDSGDSTYYADSVKGRFTLSRDNAKNTVYLQMNSLKPEDTAVYYCATDVTFVYDFGYFQFDYWGQGTQVTVSS” is “low polyreactivity”.
In the case of “QVQLVESGGGLVQAGGSLRLSCAASGSIFVKYAMGWYRQAPGKERELVAAISGSGGSTYYADSVKGRFTISRDNAKNTVYLQMNSLKPEDTAVYYCAAAYHGRHYYWGQGTQVTVSS”, the “polyreactivity (PSR sort gate)” value is given as “high polyreactivity”.
Next, “QVQLVESGGGLVQAGGSLRLSCAASGRTSYTYVMGWYRQAPGTERELVAAIRLSGGNTYYADSVKGRFTISRDNAKNTVYLQMNSLKPEDTAVYYCAAHYWRHRKAYGYWGQGTQVTVSS”: “high polyreactivity”; “QVQLVESRGGLVQAGGSLRLSCAASGRTLKYNVMGWYRQAPGKERELVASITSRGGSTRYADSVKGRFTISRDNAKNTVYLQMNSLKPEDTAVYYCAARYTTARSSYDYWGQGTQVTVSS”: “high polyreactivity”; “QVQLVESGGGLVQAAGSLRVSCAASGSIFYGYAMGGYRKAPGKERELVAAITTVGSTYADSVKGRFTISRDNAKNTVYLQMNSLKPEDTAVYYCNARDYERTRRYLIVYSRYGYWGHGTQVTVSS”: “low polyreactivity”.
Consider “QVQLVESGGGLVQAGGSLRLSCAASGSTFQVYAMGWYRQAPGKERELVAAISNGGRTNYADSVKGRFTISRDNAKNTVYLLMNSLKPEDTAVYYCNADQVWWSFDRVLVGYEYWGQGTQVTVSS”, for which the “polyreactivity (PSR sort gate)” value is reported as “low polyreactivity”.
Consider “QVQLVESGGGLVQAGGSLRLSCAASGSTFVGYAMGWYRQAPGKERELVADIDSIGGSTYYADSVKGRFTISRDNAKNTVYLQMNSLKPEDTAVYYCAARRFDTALVLYDYWGQGTQVTVSS”, for which the “polyreactivity (PSR sort gate)” value is recorded as “low polyreactivity”.

The values are drawn from the nanobody polyreactivity screen of Harvey et al. (2022).
